Data reported in the supplement of paper PMC10567573.

B1: TSN (parent)
chain: FLAAEQDIREEIRKVVQSLEQTAR

Variants of: B1
Assay: protein stability index of a GFP-peptide fusion (GPS, HEK-293T) (PSI 1-6); higher = more stable
Conditions: c terminus: a fixed tail appended
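Also: lentivirally expressed fusions sorted by FACS into six bins by GFP to DsRed ratio, PSI derived from sequencing read proportions per bin multiplied by bin number.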

Variant | protein stability index
FLAAEQDIREEIRKVVQSLGQTAR [E20G] | 2.28
FLAAEQDIREEIRKVVQSLDQTAR [E20D] | 2.77
FLAAEQDIREEIRKVVQSLVQTAR [E20V] | 2.29
FLAAEQDIREEIRKVVQSLNQTAR [E20N] | 2.08
FLAAEQDIREEIRKVVQSLIQTAR [E20I] | 2.05
FLAAEQDIREEIRKVVQSLLQTAR [E20L] | 2.13
FLAAEQDIREEIRKVVQSLCQTAR [E20C] | 2.57
FLAAEQDIREEIRKVVQSLPQTAR [E20P] | 3.47
FLAAEQDIREEIRKVVQSLWQTAR [E20W] | 2.64
FLAAEQDIREEIRKVVQSLKQTAR [E20K] | 2.29
FLAAEQDIREEIRKVVQSLSQTAR [E20S] | 2.57
FLAAEQDIREEIRKVVQSLHQTAR [E20H] | 2.55
FLAAEQDIREEIRKVVQSLRQTAR [E20R] | 2.44
FLAAEQDIREEIRKVVQSLFQTAR [E20F] | 2.73
FLAAEQDIREEIRKVVQSLAQTAR [E20A] | 3.05
FLAAEQDIREEIRKVVQSLQQTAR [E20Q] | 2.35
FLAAEQDIREEIRKVVQSLMQTAR [E20M] | 2.33
FLAAEQDIREEIRKVVQSLTQTAR [E20T] | 2.3
FLAAEQDIREEIRKVVQELEQTAR [S18E] | 2.54
FLAAEQDIREEIRKVVQVLEQTAR [S18V] | 2.52
FLAAEQDIREEIRKVVQMLEQTAR [S18M] | 2.22
FLAAEQDIREEIRKVVQRLEQTAR [S18R] | 2.27
FLAAEQDIREEIRKVVQWLEQTAR [S18W] | 1.62
FLAAEQDIREEIRKVVQGLEQTAR [S18G] | 1.7

Variant | protein stability index
FLAAEQDIREEIRKVVQDLEQTAR [S18D] | 2.31
FLAAEQDIREEIRKVVQQLEQTAR [S18Q] | 2.24
FLAAEQDIREEIRKVVQFLEQTAR [S18F] | 1.39
FLAAEQDIREEIRKVVQPLEQTAR [S18P] | 2.3
FLAAEQDIREEIRKVVQTLEQTAR [S18T] | 2.18
FLAAEQDIREEIRKVVQKLEQTAR [S18K] | 2.35
FLAAEQDIREEIRKVVQALEQTAR [S18A] | 1.67
FLAAEQDIREEIRKVVQNLEQTAR [S18N] | 2.25
FLAAEQDIREEIRKVVQYLEQTAR [S18Y] | 1.57
FLAAEQDIREEIRKVVQLLEQTAR [S18L] | 2.22
FLAAEQDIREEIRKVVQILEQTAR [S18I] | 1.92
FLAAEQDIREEIRKVVQHLEQTAR [S18H] | 1.71
FLAAEQDIREEIRKVVQCLEQTAR [S18C] | 2.28
FLAAEQDIREEIRKVVSSLEQTAR [Q17S] | 2.78
FLAAEQDIREEIRKVVLSLEQTAR [Q17L] | 2.42
FLAAEQDIREEIRKVVMSLEQTAR [Q17M] | 2.6
FLAAEQDIREEIRKVVVSLEQTAR [Q17V] | 1.87
FLAAEQDIREEIRKVVESLEQTAR [Q17E] | 1.77
FLAAEQDIREEIRKVVYSLEQTAR [Q17Y] | 1.6
FLAAEQDIREEIRKVVPSLEQTAR [Q17P] | 3.32
FLAAEQDIREEIRKVVRSLEQTAR [Q17R] | 2.02
FLAAEQDIREEIRKVVWSLEQTAR [Q17W] | 1.72
FLAAEQDIREEIRKVVISLEQTAR [Q17I] | 2.06
FLAAEQDIREEIRKVVFSLEQTAR [Q17F] | 1.58

Variant | protein stability index
FLAAEQDIREEIRKVVHSLEQTAR [Q17H] | 1.98
FLAAEQDIREEIRKVVTSLEQTAR [Q17T] | 1.84
FLAAEQDIREEIRKVVKSLEQTAR [Q17K] | 2.52
FLAAEQDIREEIRKVVNSLEQTAR [Q17N] | 2.15
FLAAEQDIREEIRKVVASLEQTAR [Q17A] | 2.47
FLAAEQDIREEIRKVVCSLEQTAR [Q17C] | 2.3
FLAAEQDIREEIRKVVDSLEQTAR [Q17D] | 1.78
FLAAEQDIREEIRKVVGSLEQTAR [Q17G] | 1.92
FLAAEQDIREEIREVVQSLEQTAR [K14E] | 2.36
FLAAEQDIREEIRIVVQSLEQTAR [K14I] | 1.39
FLAAEQDIREEIRWVVQSLEQTAR [K14W] | 1.77
FLAAEQDIREEIRDVVQSLEQTAR [K14D] | 3.41
FLAAEQDIREEIRGVVQSLEQTAR [K14G] | 2.03
FLAAEQDIREEIRTVVQSLEQTAR [K14T] | 2.25
FLAAEQDIREEIRQVVQSLEQTAR [K14Q] | 2.05
FLAAEQDIREEIRAVVQSLEQTAR [K14A] | 2.08
FLAAEQDIREEIRYVVQSLEQTAR [K14Y] | 2.3
FLAAEQDIREEIRSVVQSLEQTAR [K14S] | 2.07
FLAAEQDIREEIRMVVQSLEQTAR [K14M] | 2.24
FLAAEQDIREEIRPVVQSLEQTAR [K14P] | 3.76
FLAAEQDIREEIRFVVQSLEQTAR [K14F] | 1.48
FLAAEQDIREEIRHVVQSLEQTAR [K14H] | 1.98
FLAAEQDIREEIRLVVQSLEQTAR [K14L] | 2.13
FLAAEQDIREEIRVVVQSLEQTAR [K14V] | 1.83

Variant | protein stability index
FLAAEQDIREEIRNVVQSLEQTAR [K14N] | 2.52
FLAAEQDIREEIRRVVQSLEQTAR [K14R] | 3.3
FLAAEQDIREEIRCVVQSLEQTAR [K14C] | 2.07
FLAAEQDIREEIRKVVQSEEQTAR [L19E] | 4.16
FLAAEQDIREEIRKVVQSCEQTAR [L19C] | 4.16
FLAAEQDIREEIRKVVQSNEQTAR [L19N] | 3.8
FLAAEQDIREEIRKVVQSIEQTAR [L19I] | 2.41
FLAAEQDIREEIRKVVQSGEQTAR [L19G] | 3.51
FLAAEQDIREEIRKVVQSHEQTAR [L19H] | 2.96
FLAAEQDIREEIRKVVQSTEQTAR [L19T] | 3.76
FLAAEQDIREEIRKVVQSAEQTAR [L19A] | 3.72
FLAAEQDIREEIRKVVQSPEQTAR [L19P] | 3.9
FLAAEQDIREEIRKVVQSFEQTAR [L19F] | 2.14
FLAAEQDIREEIRKVVQSKEQTAR [L19K] | 3.44
FLAAEQDIREEIRKVVQSDEQTAR [L19D] | 3.6
FLAAEQDIREEIRKVVQSMEQTAR [L19M] | 2.33
FLAAEQDIREEIRKVVQSYEQTAR [L19Y] | 3.01
FLAAEQDIREEIRKVVQSWEQTAR [L19W] | 3.12
FLAAEQDIREEIRKVVQSQEQTAR [L19Q] | 3.39
FLAAEQDIREEIRKVVQSVEQTAR [L19V] | 3.02
FLAAEQDIREEIRKVVQSREQTAR [L19R] | 3.38
FLAAEQDIREEIRKVVQSSEQTAR [L19S] | 3.33
